The values that follow come from IntAct's records for PubMed 35512704.

First the molecules themselves.
B1: Speckle-type POZ protein (Homo sapiens), O43791 (parent)
chain: MSRVPSPPPPAEMSSGPVAESWCYTQIKVVKFSYMWTINNFSFCREEMGEVIKSSTFSSGANDKLKWCLRVNPKGLDEESKDYLSLYLLLVSCPKSEVRAKFKFSILNAKGEETKAMESQRAYRFVQGKDWGFKKFIRRDFLLDEANGLLPDDKLTLFCEVSVVQDSVNISGQNTMNMVKVPECRLADELGGLWENSRFTDCCLCVAGQEFQAHKAILAARSPVFSAMFEHEMEESKKNRVEINDVEPEVFKEMMCFIYTGKAPNLDKMADDLLAAADKYALERLKVMCEDALCSNLSVENAAEILILADLHSADQLKTQAVDFINYHASDVLETSGWKSMVVSHPHLVAEAYRSLASAQCPFLGPPRKRLKQS

The variants in the first test derive from B1. To be noted: with dll3_human DLL3, Q9NYJ7.
Sequence of dll3_human DLL3, Q9NYJ7 (Q9NYJ7 whole entry): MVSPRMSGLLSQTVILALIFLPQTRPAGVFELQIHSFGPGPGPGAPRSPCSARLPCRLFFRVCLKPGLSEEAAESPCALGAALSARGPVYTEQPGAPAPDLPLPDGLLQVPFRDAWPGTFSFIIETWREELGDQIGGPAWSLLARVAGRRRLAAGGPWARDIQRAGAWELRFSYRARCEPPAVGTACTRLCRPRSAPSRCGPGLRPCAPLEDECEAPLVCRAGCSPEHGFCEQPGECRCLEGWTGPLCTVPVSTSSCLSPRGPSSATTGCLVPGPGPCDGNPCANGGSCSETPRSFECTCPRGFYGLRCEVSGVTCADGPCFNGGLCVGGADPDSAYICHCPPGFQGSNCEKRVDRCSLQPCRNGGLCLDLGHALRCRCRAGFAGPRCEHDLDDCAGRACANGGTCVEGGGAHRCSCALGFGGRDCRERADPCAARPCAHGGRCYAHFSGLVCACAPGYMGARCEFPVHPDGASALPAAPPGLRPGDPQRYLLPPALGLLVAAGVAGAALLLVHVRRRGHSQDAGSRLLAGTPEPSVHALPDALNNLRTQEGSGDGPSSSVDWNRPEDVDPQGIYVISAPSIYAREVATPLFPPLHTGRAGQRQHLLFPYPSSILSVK
MSRVPSPPPPAEMSSGPVAESWCYTQIKVVKFSYMWTINNFSFCREEMGEVIKSSTFSSGANDKLKWCLRVNPKGLDEESKDYLSLCLLLVSCPKSEVRAKFKFSILNAKGEETKAMESQRAYRFVQGKDWGFKKFIRRDFLLDEANGLLPDDKLTLFCEVSVVQDSVNISGQNTMNMVKVPECRLADELGGLWENSRFTDCCLCVAGQEFQAHKAILAARSPVFSAMFEHEMEESKKNRVEINDVEPEVFKEMMCFIYTGKAPNLDKMADDLLAAADKYALERLKVMCEDALCSNLSVENAAEILILADLHSADQLKTQAVDFINYHASDVLETSGWKSMVVSHPHLVAEAYRSLASAQCPFLGPPRKRLKQS [Y87C]: the “effect of a mutation on the interaction” value is reported as “with no effect”.

The variants in another test derive from B1. Conditions: with duox2_human DUOX2, Q9NRD8.
Sequence of duox2_human DUOX2, Q9NRD8 (Q9NRD8 whole entry): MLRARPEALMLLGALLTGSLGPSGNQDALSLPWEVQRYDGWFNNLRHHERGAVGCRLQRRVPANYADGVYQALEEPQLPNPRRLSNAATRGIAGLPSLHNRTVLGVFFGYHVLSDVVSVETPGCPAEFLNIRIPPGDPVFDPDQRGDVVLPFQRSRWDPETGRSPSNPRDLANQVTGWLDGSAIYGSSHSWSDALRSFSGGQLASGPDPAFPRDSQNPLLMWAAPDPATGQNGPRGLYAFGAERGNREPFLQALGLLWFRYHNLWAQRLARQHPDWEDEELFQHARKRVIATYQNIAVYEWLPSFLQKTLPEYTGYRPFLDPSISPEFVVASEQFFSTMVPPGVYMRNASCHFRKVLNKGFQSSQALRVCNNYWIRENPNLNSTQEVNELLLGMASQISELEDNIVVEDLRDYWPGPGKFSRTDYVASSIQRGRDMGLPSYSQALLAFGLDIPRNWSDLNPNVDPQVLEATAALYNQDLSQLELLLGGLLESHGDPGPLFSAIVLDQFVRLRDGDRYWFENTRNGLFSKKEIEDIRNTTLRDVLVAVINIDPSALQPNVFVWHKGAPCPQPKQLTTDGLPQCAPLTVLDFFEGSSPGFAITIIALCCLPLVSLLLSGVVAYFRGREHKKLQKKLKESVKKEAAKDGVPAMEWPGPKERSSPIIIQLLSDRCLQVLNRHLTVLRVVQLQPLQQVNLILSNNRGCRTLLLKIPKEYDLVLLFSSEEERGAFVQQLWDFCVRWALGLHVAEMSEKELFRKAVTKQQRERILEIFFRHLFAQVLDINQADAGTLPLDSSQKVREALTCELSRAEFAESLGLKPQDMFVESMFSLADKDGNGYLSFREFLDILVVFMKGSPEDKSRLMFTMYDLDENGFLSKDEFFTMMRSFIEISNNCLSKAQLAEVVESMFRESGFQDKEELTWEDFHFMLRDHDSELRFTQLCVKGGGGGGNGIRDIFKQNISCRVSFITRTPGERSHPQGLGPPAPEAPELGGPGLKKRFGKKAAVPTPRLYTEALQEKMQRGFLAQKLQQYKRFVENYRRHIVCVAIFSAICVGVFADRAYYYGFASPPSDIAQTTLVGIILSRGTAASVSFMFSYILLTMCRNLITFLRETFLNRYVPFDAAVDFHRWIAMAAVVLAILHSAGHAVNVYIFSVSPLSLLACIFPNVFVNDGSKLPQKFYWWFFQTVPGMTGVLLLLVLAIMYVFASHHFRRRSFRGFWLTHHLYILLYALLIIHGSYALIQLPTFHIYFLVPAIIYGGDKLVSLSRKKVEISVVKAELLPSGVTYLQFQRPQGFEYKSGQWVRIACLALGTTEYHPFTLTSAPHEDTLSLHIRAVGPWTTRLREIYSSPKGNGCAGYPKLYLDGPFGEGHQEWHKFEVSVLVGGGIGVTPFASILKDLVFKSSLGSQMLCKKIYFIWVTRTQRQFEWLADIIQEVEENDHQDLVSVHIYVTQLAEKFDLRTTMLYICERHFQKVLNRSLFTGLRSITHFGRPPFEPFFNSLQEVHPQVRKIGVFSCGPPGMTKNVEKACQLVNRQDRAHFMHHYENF
Consider MSRVPSPPPPAEMSSGPVAESWCYTQIKVVKFSYMWTINNFSFCREEMGEVIKSSTFSSGANDKLKWCLRVNPKGLDEESKDYLSLCLLLVSCPKSEVRAKFKFSILNAKGEETKAMESQRAYRFVQGKDWGFKKFIRRDFLLDEANGLLPDDKLTLFCEVSVVQDSVNISGQNTMNMVKVPECRLADELGGLWENSRFTDCCLCVAGQEFQAHKAILAARSPVFSAMFEHEMEESKKNRVEINDVEPEVFKEMMCFIYTGKAPNLDKMADDLLAAADKYALERLKVMCEDALCSNLSVENAAEILILADLHSADQLKTQAVDFINYHASDVLETSGWKSMVVSHPHLVAEAYRSLASAQCPFLGPPRKRLKQS [Y87C], for which the “effect of a mutation on the interaction” value was “with no effect”.

Variants of B1 are the subject of a further test. Conditions: with e2f1_human E2F1, Q01094.
Sequence of e2f1_human E2F1, Q01094 (Q01094 whole entry): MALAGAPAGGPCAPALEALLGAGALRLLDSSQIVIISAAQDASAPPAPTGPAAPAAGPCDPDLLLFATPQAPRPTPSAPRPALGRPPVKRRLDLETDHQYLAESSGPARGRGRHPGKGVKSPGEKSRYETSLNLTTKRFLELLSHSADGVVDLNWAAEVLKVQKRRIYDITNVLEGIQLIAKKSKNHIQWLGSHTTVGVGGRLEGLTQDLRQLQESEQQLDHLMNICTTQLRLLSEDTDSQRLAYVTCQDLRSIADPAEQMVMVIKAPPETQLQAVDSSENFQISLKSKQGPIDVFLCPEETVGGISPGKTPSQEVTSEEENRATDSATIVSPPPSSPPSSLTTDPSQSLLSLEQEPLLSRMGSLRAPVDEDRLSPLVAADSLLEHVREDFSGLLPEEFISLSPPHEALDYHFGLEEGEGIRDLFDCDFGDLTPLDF
Turning to MSRVPSPPPPAEMSSGPVAESWCYTQIKVVKFSYMWTINNFSFCREEMGEVIKSSTFSSGANDKLKWCLRVNPKGLDEESKDYLSLCLLLVSCPKSEVRAKFKFSILNAKGEETKAMESQRAYRFVQGKDWGFKKFIRRDFLLDEANGLLPDDKLTLFCEVSVVQDSVNISGQNTMNMVKVPECRLADELGGLWENSRFTDCCLCVAGQEFQAHKAILAARSPVFSAMFEHEMEESKKNRVEINDVEPEVFKEMMCFIYTGKAPNLDKMADDLLAAADKYALERLKVMCEDALCSNLSVENAAEILILADLHSADQLKTQAVDFINYHASDVLETSGWKSMVVSHPHLVAEAYRSLASAQCPFLGPPRKRLKQS [Y87C], the “effect of a mutation on the interaction” value was “with no effect”.

Variants of B1 are the subject of a further test. To be noted: with e2f2_human E2F2, Q14209.
As for MSRVPSPPPPAEMSSGPVAESWCYTQIKVVKFSYMWTINNFSFCREEMGEVIKSSTFSSGANDKLKWCLRVNPKGLDEESKDYLSLCLLLVSCPKSEVRAKFKFSILNAKGEETKAMESQRAYRFVQGKDWGFKKFIRRDFLLDEANGLLPDDKLTLFCEVSVVQDSVNISGQNTMNMVKVPECRLADELGGLWENSRFTDCCLCVAGQEFQAHKAILAARSPVFSAMFEHEMEESKKNRVEINDVEPEVFKEMMCFIYTGKAPNLDKMADDLLAAADKYALERLKVMCEDALCSNLSVENAAEILILADLHSADQLKTQAVDFINYHASDVLETSGWKSMVVSHPHLVAEAYRSLASAQCPFLGPPRKRLKQS [Y87C], the “effect of a mutation on the interaction” value is reported as “with no effect”.

Variants of B1 are the subject of the next test. Conditions: with e2f3_human E2F3, O00716.
Sequence of e2f3_human E2F3, O00716 (O00716 whole entry): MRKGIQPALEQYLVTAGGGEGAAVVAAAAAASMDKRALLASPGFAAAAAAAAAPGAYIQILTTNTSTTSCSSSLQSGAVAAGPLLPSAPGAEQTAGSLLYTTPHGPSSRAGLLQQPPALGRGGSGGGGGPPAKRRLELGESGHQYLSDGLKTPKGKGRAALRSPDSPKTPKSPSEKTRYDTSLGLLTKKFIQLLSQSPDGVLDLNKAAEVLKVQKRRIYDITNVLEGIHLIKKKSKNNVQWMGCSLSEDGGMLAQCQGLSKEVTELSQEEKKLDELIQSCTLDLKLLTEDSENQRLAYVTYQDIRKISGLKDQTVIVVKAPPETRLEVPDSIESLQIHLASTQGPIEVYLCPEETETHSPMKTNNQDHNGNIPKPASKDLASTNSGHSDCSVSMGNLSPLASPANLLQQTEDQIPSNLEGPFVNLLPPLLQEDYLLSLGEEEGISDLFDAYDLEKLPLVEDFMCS
Consider MSRVPSPPPPAEMSSGPVAESWCYTQIKVVKFSYMWTINNFSFCREEMGEVIKSSTFSSGANDKLKWCLRVNPKGLDEESKDYLSLCLLLVSCPKSEVRAKFKFSILNAKGEETKAMESQRAYRFVQGKDWGFKKFIRRDFLLDEANGLLPDDKLTLFCEVSVVQDSVNISGQNTMNMVKVPECRLADELGGLWENSRFTDCCLCVAGQEFQAHKAILAARSPVFSAMFEHEMEESKKNRVEINDVEPEVFKEMMCFIYTGKAPNLDKMADDLLAAADKYALERLKVMCEDALCSNLSVENAAEILILADLHSADQLKTQAVDFINYHASDVLETSGWKSMVVSHPHLVAEAYRSLASAQCPFLGPPRKRLKQS [Y87C], for which the “effect of a mutation on the interaction” value was “with no effect”.

A further test covers variants of B1. To be noted: with e2f5_human E2F5, Q15329.
Sequence of e2f5_human E2F5, Q15329 (Q15329 whole entry): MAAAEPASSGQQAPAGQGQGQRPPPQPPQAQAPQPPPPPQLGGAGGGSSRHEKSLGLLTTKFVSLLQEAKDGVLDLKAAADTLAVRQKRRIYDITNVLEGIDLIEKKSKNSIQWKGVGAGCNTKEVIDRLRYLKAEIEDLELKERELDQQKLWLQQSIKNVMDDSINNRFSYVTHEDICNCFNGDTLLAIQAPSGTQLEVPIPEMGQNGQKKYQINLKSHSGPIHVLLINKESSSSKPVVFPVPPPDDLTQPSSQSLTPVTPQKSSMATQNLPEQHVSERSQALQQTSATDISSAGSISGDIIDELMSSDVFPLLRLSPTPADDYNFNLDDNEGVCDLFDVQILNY
Consider MSRVPSPPPPAEMSSGPVAESWCYTQIKVVKFSYMWTINNFSFCREEMGEVIKSSTFSSGANDKLKWCLRVNPKGLDEESKDYLSLCLLLVSCPKSEVRAKFKFSILNAKGEETKAMESQRAYRFVQGKDWGFKKFIRRDFLLDEANGLLPDDKLTLFCEVSVVQDSVNISGQNTMNMVKVPECRLADELGGLWENSRFTDCCLCVAGQEFQAHKAILAARSPVFSAMFEHEMEESKKNRVEINDVEPEVFKEMMCFIYTGKAPNLDKMADDLLAAADKYALERLKVMCEDALCSNLSVENAAEILILADLHSADQLKTQAVDFINYHASDVLETSGWKSMVVSHPHLVAEAYRSLASAQCPFLGPPRKRLKQS [Y87C], for which the “effect of a mutation on the interaction” value is “with no effect”.

In a further test the parent is B1. Conditions: with e2f6_human E2F6, O75461.
Sequence of e2f6_human E2F6, O75461 (O75461 whole entry): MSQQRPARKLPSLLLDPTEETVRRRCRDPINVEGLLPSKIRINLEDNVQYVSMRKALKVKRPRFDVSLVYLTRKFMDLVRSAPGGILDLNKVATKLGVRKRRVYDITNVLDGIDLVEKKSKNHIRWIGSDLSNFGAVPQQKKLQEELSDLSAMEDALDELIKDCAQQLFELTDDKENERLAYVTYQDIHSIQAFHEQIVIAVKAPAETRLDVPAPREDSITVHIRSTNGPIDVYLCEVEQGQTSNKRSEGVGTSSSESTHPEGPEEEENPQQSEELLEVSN
On to MSRVPSPPPPAEMSSGPVAESWCYTQIKVVKFSYMWTINNFSFCREEMGEVIKSSTFSSGANDKLKWCLRVNPKGLDEESKDYLSLCLLLVSCPKSEVRAKFKFSILNAKGEETKAMESQRAYRFVQGKDWGFKKFIRRDFLLDEANGLLPDDKLTLFCEVSVVQDSVNISGQNTMNMVKVPECRLADELGGLWENSRFTDCCLCVAGQEFQAHKAILAARSPVFSAMFEHEMEESKKNRVEINDVEPEVFKEMMCFIYTGKAPNLDKMADDLLAAADKYALERLKVMCEDALCSNLSVENAAEILILADLHSADQLKTQAVDFINYHASDVLETSGWKSMVVSHPHLVAEAYRSLASAQCPFLGPPRKRLKQS [Y87C], for which the “effect of a mutation on the interaction” value is “with no effect”.

The variants in another test derive from B1. Conditions: with e2f8_human E2F8, A0AVK6.
Sequence of e2f8_human E2F8, A0AVK6 (A0AVK6 whole entry): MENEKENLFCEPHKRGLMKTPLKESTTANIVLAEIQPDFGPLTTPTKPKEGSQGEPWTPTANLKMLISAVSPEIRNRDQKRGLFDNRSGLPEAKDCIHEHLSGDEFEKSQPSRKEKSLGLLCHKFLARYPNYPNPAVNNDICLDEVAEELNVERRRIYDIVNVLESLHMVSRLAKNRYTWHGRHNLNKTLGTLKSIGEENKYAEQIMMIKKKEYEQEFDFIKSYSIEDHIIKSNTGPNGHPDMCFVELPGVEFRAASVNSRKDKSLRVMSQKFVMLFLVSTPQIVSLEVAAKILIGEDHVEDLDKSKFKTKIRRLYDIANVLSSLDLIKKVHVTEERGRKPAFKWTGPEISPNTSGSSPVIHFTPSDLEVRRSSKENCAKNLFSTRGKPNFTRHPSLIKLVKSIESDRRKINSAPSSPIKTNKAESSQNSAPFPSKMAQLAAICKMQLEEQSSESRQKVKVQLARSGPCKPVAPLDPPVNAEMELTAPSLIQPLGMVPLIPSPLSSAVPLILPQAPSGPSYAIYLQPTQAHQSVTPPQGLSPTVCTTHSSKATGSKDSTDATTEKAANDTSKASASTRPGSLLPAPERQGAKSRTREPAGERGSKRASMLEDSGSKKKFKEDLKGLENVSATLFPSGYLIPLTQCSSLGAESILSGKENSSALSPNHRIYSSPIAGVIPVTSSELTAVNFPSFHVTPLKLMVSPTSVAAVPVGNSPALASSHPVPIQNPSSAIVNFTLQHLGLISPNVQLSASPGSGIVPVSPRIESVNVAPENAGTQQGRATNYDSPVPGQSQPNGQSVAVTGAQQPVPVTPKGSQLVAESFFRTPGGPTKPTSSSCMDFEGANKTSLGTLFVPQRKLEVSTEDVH
Regarding MSRVPSPPPPAEMSSGPVAESWCYTQIKVVKFSYMWTINNFSFCREEMGEVIKSSTFSSGANDKLKWCLRVNPKGLDEESKDYLSLCLLLVSCPKSEVRAKFKFSILNAKGEETKAMESQRAYRFVQGKDWGFKKFIRRDFLLDEANGLLPDDKLTLFCEVSVVQDSVNISGQNTMNMVKVPECRLADELGGLWENSRFTDCCLCVAGQEFQAHKAILAARSPVFSAMFEHEMEESKKNRVEINDVEPEVFKEMMCFIYTGKAPNLDKMADDLLAAADKYALERLKVMCEDALCSNLSVENAAEILILADLHSADQLKTQAVDFINYHASDVLETSGWKSMVVSHPHLVAEAYRSLASAQCPFLGPPRKRLKQS [Y87C], the “effect of a mutation on the interaction” value is “with no effect”.

In the next test the parent is B1. Conditions: with if4e_human EIF4E.
For MSRVPSPPPPAEMSSGPVAESWCYTQIKVVKFSYMWTINNFSFCREEMGEVIKSSTFSSGANDKLKWCLRVNPKGLDEESKDYLSLCLLLVSCPKSEVRAKFKFSILNAKGEETKAMESQRAYRFVQGKDWGFKKFIRRDFLLDEANGLLPDDKLTLFCEVSVVQDSVNISGQNTMNMVKVPECRLADELGGLWENSRFTDCCLCVAGQEFQAHKAILAARSPVFSAMFEHEMEESKKNRVEINDVEPEVFKEMMCFIYTGKAPNLDKMADDLLAAADKYALERLKVMCEDALCSNLSVENAAEILILADLHSADQLKTQAVDFINYHASDVLETSGWKSMVVSHPHLVAEAYRSLASAQCPFLGPPRKRLKQS [Y87C], the “effect of a mutation on the interaction” value is “with no effect”.

Variants of B1 are the subject of a further test. Conditions: with epha7_human EPHA7, Q15375.
MSRVPSPPPPAEMSSGPVAESWCYTQIKVVKFSYMWTINNFSFCREEMGEVIKSSTFSSGANDKLKWCLRVNPKGLDEESKDYLSLCLLLVSCPKSEVRAKFKFSILNAKGEETKAMESQRAYRFVQGKDWGFKKFIRRDFLLDEANGLLPDDKLTLFCEVSVVQDSVNISGQNTMNMVKVPECRLADELGGLWENSRFTDCCLCVAGQEFQAHKAILAARSPVFSAMFEHEMEESKKNRVEINDVEPEVFKEMMCFIYTGKAPNLDKMADDLLAAADKYALERLKVMCEDALCSNLSVENAAEILILADLHSADQLKTQAVDFINYHASDVLETSGWKSMVVSHPHLVAEAYRSLASAQCPFLGPPRKRLKQS [Y87C]: the “effect of a mutation on the interaction” value is “with no effect”.

Another test covers variants of B1. To be noted: with ephb1_human EPHB1, P54762.
Regarding MSRVPSPPPPAEMSSGPVAESWCYTQIKVVKFSYMWTINNFSFCREEMGEVIKSSTFSSGANDKLKWCLRVNPKGLDEESKDYLSLCLLLVSCPKSEVRAKFKFSILNAKGEETKAMESQRAYRFVQGKDWGFKKFIRRDFLLDEANGLLPDDKLTLFCEVSVVQDSVNISGQNTMNMVKVPECRLADELGGLWENSRFTDCCLCVAGQEFQAHKAILAARSPVFSAMFEHEMEESKKNRVEINDVEPEVFKEMMCFIYTGKAPNLDKMADDLLAAADKYALERLKVMCEDALCSNLSVENAAEILILADLHSADQLKTQAVDFINYHASDVLETSGWKSMVVSHPHLVAEAYRSLASAQCPFLGPPRKRLKQS [Y87C], the “effect of a mutation on the interaction” value is listed as “with no effect”.

A further test covers variants of B1. Conditions: with erbb3_human ERBB3, P21860.
Turning to MSRVPSPPPPAEMSSGPVAESWCYTQIKVVKFSYMWTINNFSFCREEMGEVIKSSTFSSGANDKLKWCLRVNPKGLDEESKDYLSLCLLLVSCPKSEVRAKFKFSILNAKGEETKAMESQRAYRFVQGKDWGFKKFIRRDFLLDEANGLLPDDKLTLFCEVSVVQDSVNISGQNTMNMVKVPECRLADELGGLWENSRFTDCCLCVAGQEFQAHKAILAARSPVFSAMFEHEMEESKKNRVEINDVEPEVFKEMMCFIYTGKAPNLDKMADDLLAAADKYALERLKVMCEDALCSNLSVENAAEILILADLHSADQLKTQAVDFINYHASDVLETSGWKSMVVSHPHLVAEAYRSLASAQCPFLGPPRKRLKQS [Y87C], the “effect of a mutation on the interaction” value is listed as “with no effect”.

The variants in a further test derive from B1. Conditions: with erbb4_human ERBB4, Q15303.
For the variant MSRVPSPPPPAEMSSGPVAESWCYTQIKVVKFSYMWTINNFSFCREEMGEVIKSSTFSSGANDKLKWCLRVNPKGLDEESKDYLSLCLLLVSCPKSEVRAKFKFSILNAKGEETKAMESQRAYRFVQGKDWGFKKFIRRDFLLDEANGLLPDDKLTLFCEVSVVQDSVNISGQNTMNMVKVPECRLADELGGLWENSRFTDCCLCVAGQEFQAHKAILAARSPVFSAMFEHEMEESKKNRVEINDVEPEVFKEMMCFIYTGKAPNLDKMADDLLAAADKYALERLKVMCEDALCSNLSVENAAEILILADLHSADQLKTQAVDFINYHASDVLETSGWKSMVVSHPHLVAEAYRSLASAQCPFLGPPRKRLKQS [Y87C], the “effect of a mutation on the interaction” value was “with no effect”.

Variants of B1 are the subject of another test. To be noted: with esr1_human ESR1, P03372.
On to MSRVPSPPPPAEMSSGPVAESWCYTQIKVVKFSYMWTINNFSFCREEMGEVIKSSTFSSGANDKLKWCLRVNPKGLDEESKDYLSLCLLLVSCPKSEVRAKFKFSILNAKGEETKAMESQRAYRFVQGKDWGFKKFIRRDFLLDEANGLLPDDKLTLFCEVSVVQDSVNISGQNTMNMVKVPECRLADELGGLWENSRFTDCCLCVAGQEFQAHKAILAARSPVFSAMFEHEMEESKKNRVEINDVEPEVFKEMMCFIYTGKAPNLDKMADDLLAAADKYALERLKVMCEDALCSNLSVENAAEILILADLHSADQLKTQAVDFINYHASDVLETSGWKSMVVSHPHLVAEAYRSLASAQCPFLGPPRKRLKQS [Y87C], for which the “effect of a mutation on the interaction” value is on record as “with no effect”.

The variants in the next test derive from B1. To be noted: with etv1_human ETV1, P50549.
Sequence of etv1_human ETV1, P50549 (P50549 whole entry): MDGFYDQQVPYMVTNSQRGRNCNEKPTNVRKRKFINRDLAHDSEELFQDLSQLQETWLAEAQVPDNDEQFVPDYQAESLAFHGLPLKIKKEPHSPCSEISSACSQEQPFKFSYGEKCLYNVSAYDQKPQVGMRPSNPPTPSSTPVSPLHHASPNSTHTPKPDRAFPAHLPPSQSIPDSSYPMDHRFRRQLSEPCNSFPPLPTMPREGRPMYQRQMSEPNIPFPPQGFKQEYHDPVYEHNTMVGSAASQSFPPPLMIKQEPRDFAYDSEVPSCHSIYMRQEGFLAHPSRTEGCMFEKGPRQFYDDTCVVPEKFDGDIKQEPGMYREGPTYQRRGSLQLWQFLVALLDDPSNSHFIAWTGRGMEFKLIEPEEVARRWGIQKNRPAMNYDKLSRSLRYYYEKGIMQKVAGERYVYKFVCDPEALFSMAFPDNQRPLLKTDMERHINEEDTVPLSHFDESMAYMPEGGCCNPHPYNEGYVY
Take MSRVPSPPPPAEMSSGPVAESWCYTQIKVVKFSYMWTINNFSFCREEMGEVIKSSTFSSGANDKLKWCLRVNPKGLDEESKDYLSLCLLLVSCPKSEVRAKFKFSILNAKGEETKAMESQRAYRFVQGKDWGFKKFIRRDFLLDEANGLLPDDKLTLFCEVSVVQDSVNISGQNTMNMVKVPECRLADELGGLWENSRFTDCCLCVAGQEFQAHKAILAARSPVFSAMFEHEMEESKKNRVEINDVEPEVFKEMMCFIYTGKAPNLDKMADDLLAAADKYALERLKVMCEDALCSNLSVENAAEILILADLHSADQLKTQAVDFINYHASDVLETSGWKSMVVSHPHLVAEAYRSLASAQCPFLGPPRKRLKQS [Y87C]: the “effect of a mutation on the interaction” value is listed as “with no effect”.
